Assay results from the FLAb antibody collection (doi:10.1101/2023.12.08.570889).
Numbering of substitutions follows the chain as printed.

B1: unnamed (protein)
chain 1: EVQLLESGGGLVQPGGSLRLSCAASGFTFSQYGMDWVRQAPGKGLEWVSGIGPSGGSTVYADSVKGRFTISRDNSKNTLYLQMNSLRAEDTAVYYCTRDGPAWYYAFDVWGQGTTVTVSS
chain 2: DIQMTQSPSSLSASVGDRVTITCQASQDISNYLNWYQQKPGKAPKLLIYDASNLETGVPSRFSGSGSGTDFTFTISSLQPEDIATYYCQQADSFPVTFGGGTKVEIK
B2: unnamed (protein)
chain 1: B1 chain 1 with T97A, D99G, P101S, W103Y
chain 2: B1 chain 2
B3: unnamed (protein)
chain 1: B1 chain 1 with D99G, P101T, W103Y
chain 2: B1 chain 2
B4: unnamed (protein)
chain 1: B1 chain 1 with A102Y, W103Y, V109Y
chain 2: B1 chain 2
B5: unnamed (protein)
chain 1: B1 chain 1 with T97A, W103Y
chain 2: B1 chain 2
B6: unnamed (protein)
chain 1: B1 chain 1 with T97A, D99G
chain 2: B1 chain 2
B7: unnamed (protein)
chain 1: B1 chain 1 with D99G, W103Y, A106G, V109Y
chain 2: B1 chain 2
B8: unnamed (protein)
chain 1: B1 chain 1 with D99G
chain 2: B1 chain 2
B9: unnamed (protein)
chain 1: B1 chain 1 with D99G, A102W, W103Y
chain 2: B1 chain 2
B10: unnamed (protein)
chain 1: B1 chain 1 with A102D, W103Y, V109Y
chain 2: B1 chain 2
B11: unnamed (protein)
chain 1: B1 chain 1 with D99G, W103Y, V109Y
chain 2: B1 chain 2
B12: unnamed (protein)
chain 1: B1 chain 1 with T97A, A102S
chain 2: B1 chain 2
B13: unnamed (protein)
chain 1: B1 chain 1 with T97A, D99G, W103Y, V109I
chain 2: B1 chain 2
B14: unnamed (protein)
chain 1: B1 chain 1 with P101G, W103Y
chain 2: B1 chain 2
B15: unnamed (protein)
chain 1: B1 chain 1 with P101D, W103Y
chain 2: B1 chain 2
B16: unnamed (protein)
chain 1: B1 chain 1 with P101R, A102S, W103Y
chain 2: B1 chain 2
B17: unnamed (protein)
chain 1: QVQLVQSGAEVKKPGASVKVSCKASGYSFTSSWIHWVKQAPGQGLEWMGEINPGNVRTNYNENFRNKVTMTVDTSISTAYMELSRLRSDDTAVYYCTVVFYGEPYFPYWGQGTLVTVSS
chain 2: QIVLTQSPGTLSLSPGERATMTCTASSSVSSSYFHWYQQKPGQAPRLWIYRTSRLASGVPDRFSGSGSGTDFTLTISRLEPEDAATYYCHQFHRSPLTFGAGTKLEIK
B18: unnamed (protein)
chain 1: B17 chain 1 with V98R, F100Q, P107D
chain 2: B17 chain 2
B19: unnamed (protein)
chain 1: B17 chain 1 with V98R, V99S, F100R, Y105W, P107D
chain 2: B17 chain 2

These binders were tested against FXI (assay: Kd (SPR)).

Row | Binder | Kd
1 | B1 | 51.7 nM
2 | B2 | 822 nM
3 | B3 | 1410 nM
4 | B4 | 68 nM
5 | B5 | 84 nM
6 | B6 | 204 nM
7 | B7 | 148 nM
8 | B8 | 241 nM
9 | B9 | 284 nM
10 | B10 | 573 nM
11 | B11 | 306 nM
12 | B12 | 59.9 nM
13 | B13 | 430 nM
14 | B14 | 135 nM
15 | B15 | 625 nM
16 | B16 | 750 nM

These binders were tested against IL36R (assay: Kd (SPR)).

Row | Binder | Kd
17 | B17 | 0.964 nM
18 | B18 | 0.617 nM
19 | B19 | 24.5 nM
